Source: the Human Domainome abundance scans (Beltran et al. 2025)
± gives the uncertainty stated by the source.

B1: Retinoic acid receptor beta, residues 85 to 161; numbered along this chain, P10826 (parent)
chain: YKPCFVCQDKSSGYHYGVSACEGCKGFFRRSIQKNMIYTCHRDKNCVINKVTRNRCQYCRLQKCFEVGMSKESVRND
B2: Dynamin-binding protein, residues 242 to 304; numbered along this chain, Q6XZF7 (parent)
chain: EEPGTYGVALYRFQALEPNELDFEVGDKIRILATLEDGWLEGSLKGRTGIFPYRFVKLCPDTR

Variants of: B1
Assay: abundance fitness (aPCA) (normalised: wild type 0, dead -1); higher = more abundant; growth selection in yeast, the domain comes from the species named
Settings: Homo sapiens

| Variant | abundance fitness |
| --- | --- |
| V51D | 0.255 ± 0.091 |
| V51M | 0.166 ± 0.056 |
| V51N | -0.014 ± 0.077 |
| L61W | -0.605 ± 0.078 |
| L61G | -0.605 ± 0.069 |
| L61C | -0.657 ± 0.16 |
| Y38P | -0.26 ± 0.085 |
| Y38R | -0.499 ± 0.065 |
| Y38G | -0.523 ± 0.06 |
| Q57T | -0.251 ± 0.075 |
| F27I | -0.724 ± 0.32 |
| F27M | -0.454 ± 0.1 |
| F65W | -0.174 ± 0.045 |
| R29Q | 0.091 ± 0.06 |
| R29T | 0.211 ± 0.064 |
| Y1N | 0.255 ± 0.07 |
| M36I | -0.239 ± 0.1 |
| M36E | 0.124 ± 0.046 |
| N45K | 0.053 ± 0.069 |
| N45V | 0.039 ± 0.065 |
| Q62H | 0.123 ± 0.081 |
| K25I | 0.094 ± 0.08 |
| S19E | 0.017 ± 0.051 |
| C59R | -0.869 ± 0.15 |
| C59V | -0.941 ± 0.14 |
| C4P | -0.428 ± 0.11 |

| Variant | abundance fitness |
| --- | --- |
| C40A | -0.901 ± 0.096 |
| C40W | -0.594 ± 0.087 |
| C21N | -0.501 ± 0.2 |
| V47H | -0.077 ± 0.049 |
| V47N | -0.103 ± 0.066 |
| C64E | -0.799 ± 0.088 |
| C64H | -0.646 ± 0.15 |
| C64M | -0.412 ± 0.067 |
| C64K | -0.885 ± 0.14 |
| Y16E | 0.29 ± 0.077 |
| Y16P | -0.115 ± 0.084 |
| V67Q | -0.035 ± 0.065 |
| V67R | -0.291 ± 0.057 |
| D43A | 0.026 ± 0.037 |
| V74F | -0.064 ± 0.081 |
| K10H | 0.024 ± 0.11 |
| K10S | 0.165 ± 0.05 |
| Q8H | 0.055 ± 0.1 |
| Q8S | 0.064 ± 0.046 |
| Y14C | -0.119 ± 0.088 |
| Y14H | 0.113 ± 0.07 |
| G68N | -0.338 ± 0.12 |
| G68S | -0.595 ± 0.075 |
| C7S | -0.868 ± 0.17 |
| C7H | -0.932 ± 0.42 |
| C7K | -0.879 ± 0.27 |

| Variant | abundance fitness |
| --- | --- |
| P3Q | 0.079 ± 0.056 |
| P3V | -0.023 ± 0.051 |
| P3L | 0.027 ± 0.048 |
| C56G | -0.773 ± 0.066 |
| C56H | -0.581 ± 0.32 |
| N76V | 0.047 ± 0.054 |
| T39R | -0.01 ± 0.028 |
| T39W | -0.097 ± 0.036 |
| E72T | -0.004 ± 0.064 |
| R60N | -0.845 ± 0.22 |
| R60E | -0.598 ± 0.14 |
| R60C | -0.155 ± 0.065 |
| I32C | -0.176 ± 0.075 |
| I32K | -0.45 ± 0.12 |
| N54I | 0.233 ± 0.067 |
| K2G | -0.182 ± 0.05 |
| K2N | 0.162 ± 0.065 |
| K2M | -0.074 ± 0.073 |
| N35Q | 0.087 ± 0.065 |
| F5A | 0.053 ± 0.052 |
| F5H | -0.435 ± 0.13 |
| F5K | -0.418 ± 0.08 |
| D77K | -0.082 ± 0.14 |
| G13E | -0.068 ± 0.12 |
| G13A | -0.325 ± 0.1 |
| G13K | -0.292 ± 0.2 |

| Variant | abundance fitness |
| --- | --- |
| G13D | 0.082 ± 0.081 |
| V18S | -0.165 ± 0.062 |
| G23Q | 0.057 ± 0.056 |
| C24A | -1.03 ± 0.15 |
| C24K | -0.89 ± 0.18 |
| C24E | -0.842 ± 0.12 |
| R75D | -0.051 ± 0.078 |
| R75L | 0.102 ± 0.04 |
| S31P | -0.611 ± 0.19 |
| E66I | -0.092 ± 0.1 |
| K50H | 0.094 ± 0.059 |
| T52E | 0.123 ± 0.043 |
| T52F | -0.188 ± 0.084 |
| T52V | -0.021 ± 0.037 |
| K44L | -0.059 ± 0.043 |
| C46H | -0.475 ± 0.13 |
| K34C | -0.05 ± 0.054 |
| S12F | -0.205 ± 0.12 |
| S70Q | -0.009 ± 0.074 |
| V6N | -0.873 ± 0.38 |
| V6Q | -0.926 ± 0.23 |
| S11G | -0.165 ± 0.044 |
| K63H | -0.027 ± 0.12 |
| K63Y | -0.37 ± 0.21 |

Variants of: B2
Assay: as above
Settings: Homo sapiens

| Variant | abundance fitness |
| --- | --- |
| L10S | -0.457 ± 0.065 |
| L10C | -0.477 ± 0.073 |
| L10N | -0.827 ± 0.11 |
| L10G | -0.743 ± 0.098 |
| L10K | -0.384 ± 0.21 |
| L10D | -0.679 ± 0.11 |
| L10W | -0.397 ± 0.15 |
| L10V | -0.252 ± 0.054 |
| L10Q | -0.564 ± 0.21 |
| L10P | -0.7 ± 0.15 |
| L10M | 0.048 ± 0.094 |
| L10I | 0.028 ± 0.059 |
| L10F | -0.873 ± 0.12 |
| L10H | -0.566 ± 0.12 |
| L10E | -0.655 ± 0.25 |
| L10A | -0.761 ± 0.14 |
| A15C | -0.617 ± 0.076 |
| Y6D | -0.754 ± 0.11 |
| Y6S | -0.672 ± 0.073 |
| Y6W | -0.498 ± 0.27 |
| Y6F | 0.071 ± 0.048 |
| Y6L | -0.309 ± 0.066 |

| Variant | abundance fitness |
| --- | --- |
| Y6N | -0.785 ± 0.095 |
| Y6Q | -0.927 ± 0.31 |
| Y6G | -0.696 ± 0.079 |
| Y6V | -0.135 ± 0.052 |
| Y6R | -0.712 ± 0.1 |
| Y6E | -0.718 ± 0.2 |
| Y6C | -0.502 ± 0.083 |
| Y6M | -0.394 ± 0.16 |
| Y6T | -0.45 ± 0.094 |
| Y6K | -0.653 ± 0.2 |
| Y6H | -0.498 ± 0.1 |
| Y6I | -0.123 ± 0.053 |
| G4R | -0.187 ± 0.059 |
| G4V | 0.008 ± 0.052 |
| G4Q | 0.059 ± 0.15 |
| G4W | -0.312 ± 0.16 |
| G4D | -0.004 ± 0.064 |
| G4N | -0.032 ± 0.058 |
| G4Y | -0.044 ± 0.059 |
| G4L | -0.05 ± 0.064 |
| G4P | 0.214 ± 0.11 |
| G4K | -0.211 ± 0.15 |

| Variant | abundance fitness |
| --- | --- |
| G4F | 0.009 ± 0.051 |
| G4M | 0.283 ± 0.28 |
| G4A | -0.095 ± 0.059 |
| G4T | 0.103 ± 0.077 |
| G4H | 0.131 ± 0.066 |
| G4E | 0.622 ± 0.14 |
| G4C | -0.135 ± 0.057 |
| G4I | 0.078 ± 0.064 |
| P3G | -0.222 ± 0.08 |
| P3Q | -0.026 ± 0.14 |
| P3Y | 0.053 ± 0.07 |
| P3C | -0.221 ± 0.077 |
| P3W | -0.19 ± 0.29 |
| P3E | -0.033 ± 0.35 |
| P3H | 0.088 ± 0.066 |
| P3T | 0.126 ± 0.075 |
| P3V | -0.169 ± 0.068 |
| P3I | 0.273 ± 0.073 |
| P3K | 0.18 ± 0.16 |
| P3L | 0.108 ± 0.071 |
| P3M | 0.207 ± 0.15 |
